Laboratory results published in publication PMC9426534, “Interactions of Bacterial Toxin CNF1 and Host JAK1/2 Driven by Liquid-Liquid Phase Separation Enhance Macrophage Polarization” (mBio, 2022).

Key:
[1] = target: T1, MYC-tagged JAK1, full length (UniProt P23458 1-1154); experiment: co-IP; in vitro, purified proteins; truncated FLAG-tagged CNF1 proteins precipitated, MYC-tagged JAK1 detected and normalised to the FLAG-CNF1 in the IP; conditions: both partners purified
T1 construct: also called MYC-JAK1; MYC-tagged full-length JAK1; source: HeLa, transfected, in lysate

[2] = target: T2, Cytotoxic necrotizing factor 1 (CNF1), recombinant FLAG-tagged, full length (uropathogenic Escherichia coli (UPEC), UniProt Q47106 1-1014); experiment: co-IP; in vitro, purified proteins; truncated MYC-tagged JAK1 proteins precipitated, FLAG-tagged CNF1 detected and normalised to the MYC-JAK1 in the IP; conditions: both partners purified
T2 construct: also called FLAG-CNF1; FLAG-tagged full-length CNF1; source: recombinant, purified (additionally by size exclusion chromatography)

| Binder | binding result [1] | binding result [2] |
| --- | --- | --- |
| FLAG-CNF1 truncation mutant 1-720 (N2) (domain or fragment, source: recombinant, purified) MGNQWQQKYLLEYNELVSNFPSPERVVSDYIKNCFKTDLPWFSRIDPDNAYFICFSQNRSNSRSYTGWDHLGKYKTEVLTLTQAALINIGYRFDVFDDANSSTGIYKTKSADVFNEENEEKMLPSEYLHFLQKCDFAGVYGKTLSDYWSKYYDKFKLLLKNYYISSALYLYKNGELDEREYNFSMNALNRSDNISLLFFDIYGYYASDIFVAKNNDKVMLFIPGAKKPFLFKKNIADLRLTLKELIKDSDKQQLLSQHFSLYSRQDGVSYAGVNSVLHAIENDGNFNESYFLYSNKTLSNKDVFDAIAISVKKRSFSDGDIVIKSNSEAQRDYALTILQTILSMTPIFDIVVPEVSVPLGLGIITSSMGISFDQLINGDTYEERRSAIPGLATNAVLLGLSFAIPLLISKAGINQEVLSSVINNEGRTLNETNIDIFLKEYGIAEDSISSTNLLDVKLKSSGQHVNIVKLSDEDNQIVAVKGSSLSGIYYEVDIETGYEILSRRIYRTEYNNEILWTRGGGLKGGQPFDFESLNIPVFFKDEPYSAVTGSPLSFINDDSSLLYPDTNPKLPQPTSEMDIVNYVKGSGSFGDRFVTLMRGATEEEAWNIASYHTAGGSTEELHEILLGQGPQSSLGFTEYTSNVNSADAASRRHFLVVIKVHVKYITNNNVSYVNHWAIPDEAPVEVLAVVDRRFNFPEPSTPPDISTIRKLLSLRYFKES | binds | – |
| MYC-JAK1 truncation mutant 1-544 (domain or fragment, source: recombinant, purified) MQYLNIKEDCNAMAFCAKMRSSKKTEVNLEAPEPGVEVIFYLSDREPLRLGSGEYTAEELCIRAAQACRISPLCHNLFALYDENTKLWYAPNRTITVDDKMSLRLHYRMRFYFTNWHGTNDNEQSVWRHSPKKQKNGYEKKKIPDATPLLDASSLEYLFAQGQYDLVKCLAPIRDPKTEQDGHDIENECLGMAVLAISHYAMMKKMQLPELPKDISYKRYIPETLNKSIRQRNLLTRMRINNVFKDFLKEFNNKTICDSSVSTHDLKVKYLATLETLTKHYGAEIFETSMLLISSENEMNWFHSNDGGNVLYYEVMVTGNLGIQWRHKPNVVSVEKEKNKLKRKKLENKHKKDEEKNKIREEWNNFSYFPEITHIVIKESVVSINKQDNKKMELKLSSHEEALSFVSLVDGYFRLTADAHHYLCTDVAPPLIVHNIQNGCHGPICTEYAINKLRQEGSEEGMYVLRWSCTDFDNILMTVTCFEKSEQVQGAQKQFKNFQIEVQKGRYSLHGSDRSFPSLGDLMSHLKKQILRTDNISFMLKRCC | – | binds |
| FLAG-CNF1 truncation mutant 190-1014 (C1) (domain or fragment, source: recombinant, purified) RSDNISLLFFDIYGYYASDIFVAKNNDKVMLFIPGAKKPFLFKKNIADLRLTLKELIKDSDKQQLLSQHFSLYSRQDGVSYAGVNSVLHAIENDGNFNESYFLYSNKTLSNKDVFDAIAISVKKRSFSDGDIVIKSNSEAQRDYALTILQTILSMTPIFDIVVPEVSVPLGLGIITSSMGISFDQLINGDTYEERRSAIPGLATNAVLLGLSFAIPLLISKAGINQEVLSSVINNEGRTLNETNIDIFLKEYGIAEDSISSTNLLDVKLKSSGQHVNIVKLSDEDNQIVAVKGSSLSGIYYEVDIETGYEILSRRIYRTEYNNEILWTRGGGLKGGQPFDFESLNIPVFFKDEPYSAVTGSPLSFINDDSSLLYPDTNPKLPQPTSEMDIVNYVKGSGSFGDRFVTLMRGATEEEAWNIASYHTAGGSTEELHEILLGQGPQSSLGFTEYTSNVNSADAASRRHFLVVIKVHVKYITNNNVSYVNHWAIPDEAPVEVLAVVDRRFNFPEPSTPPDISTIRKLLSLRYFKESIESTSKSNFQKLSRGNIDVLKGRGSISSTRQRAIYPYFEAANADEQQPLFFYIKKDRFDNHGYDQYFYDNTVGLNGIPTLNTYTGEIPSDSSSLGSTYWKKYNLTNETSIIRVSNSARGANGIKIALEEVQEGKPVIITSGNLSGCTTIVARKEGYIYKVHTGTTKSLAGFTSTTGVKKAVEVLELLTKEPIPRVEGIMSNDFLVDYLSENFEDSLITYSSSEKKPDSQITIIRDNVSVFPYFLDNIPEHGFGTSATVLVRVDGNVVVRSLSESYSLNADASEISVLKVFSKKF | binds | – |
| MYC-JAK1 truncation mutant 1-855 (domain or fragment, source: recombinant, purified) MQYLNIKEDCNAMAFCAKMRSSKKTEVNLEAPEPGVEVIFYLSDREPLRLGSGEYTAEELCIRAAQACRISPLCHNLFALYDENTKLWYAPNRTITVDDKMSLRLHYRMRFYFTNWHGTNDNEQSVWRHSPKKQKNGYEKKKIPDATPLLDASSLEYLFAQGQYDLVKCLAPIRDPKTEQDGHDIENECLGMAVLAISHYAMMKKMQLPELPKDISYKRYIPETLNKSIRQRNLLTRMRINNVFKDFLKEFNNKTICDSSVSTHDLKVKYLATLETLTKHYGAEIFETSMLLISSENEMNWFHSNDGGNVLYYEVMVTGNLGIQWRHKPNVVSVEKEKNKLKRKKLENKHKKDEEKNKIREEWNNFSYFPEITHIVIKESVVSINKQDNKKMELKLSSHEEALSFVSLVDGYFRLTADAHHYLCTDVAPPLIVHNIQNGCHGPICTEYAINKLRQEGSEEGMYVLRWSCTDFDNILMTVTCFEKSEQVQGAQKQFKNFQIEVQKGRYSLHGSDRSFPSLGDLMSHLKKQILRTDNISFMLKRCCQPKPREISNLLVATKKAQEWQPVYPMSQLSFDRILKKDLVQGEHLGRGTRTHIYSGTLMDYKDDEGTSEEKKIKVILKVLDPSHRDISLAFFEAASMMRQVSHKHIVYLYGVCVRDVENIMVEEFVEGGPLDLFMHRKSDVLTTPWKFKVAKQLASALSYLEDKDLVHGNVCTKNLLLAREGIDSECGPFIKLSDPGIPITVLSRQECIERIPWIAPECVEDSKNLSVAADKWSFGTTLWEICYNGEIPLKDKTLIEKERFYESRCRPVTPSCKELADLMTRCMNYDPNQRPFFRAIMRDINKLEEQNPDI | – | binds |
